# Experimental data: the supplement of paper PMC9112550, “Optimization of the antimicrobial peptide Bac7 by deep mutational scanning” (BMC Biology, 2022)
# System: Escherichia coli TOP10
# Assay: shrunken log2 fold change of peptide-encoding DNA abundance (4.5 h post-induction vs induction); higher = less antimicrobial activity (less host growth inhibition)
# Conditions: time post-induction: 4.5 h; library: site-saturation at positions 5, 18, 19, 20
# 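Further: peptides expressed intracellularly from a pBAD plasmid library in pooled LB shake-flask culture, induced with 0.3% L-arabinose, DNA abundance read by NGS, three biological replicates, DESeq2 with apeglm shrinkage.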
row,Sequence,shrunken log2 fold change
1,RRIRRRPPRLPRPRPRPCLHPRP,0.0897
2,RRIRRRPPRLPRPRPRPCLQPRP,-0.0554
3,RRIRRRPPRLPRPRPRPCMAPRP,0.61
4,RRIRRRPPRLPRPRPRPCMNPRP,-0.154
5,RRIRRRPPRLPRPRPRPCMPPRP,-0.301
6,RRIRRRPPRLPRPRPRPCNPPRP,-0.466
7,RRIRRRPPRLPRPRPRPCPDPRP,-0.0762
8,RRIRRRPPRLPRPRPRPCPGPRP,-0.196
9,RRIRRRPPRLPRPRPRPCPNPRP,-0.207
10,RRIRRRPPRLPRPRPRPCQNPRP,-0.0482
11,RRIRRRPPRLPRPRPRPCRSPRP,-0.03
12,RRIRRRPPRLPRPRPRPCSQPRP,0.0499
13,RRIRRRPPRLPRPRPRPCTFPRP,-0.262
14,RRIRRRPPRLPRPRPRPCTIPRP,-0.182
15,RRIRRRPPRLPRPRPRPCTMPRP,-0.451
16,RRIRRRPPRLPRPRPRPCYAPRP,1.3
17,RRIRRRPPRLPRPRPRPCYIPRP,-0.205
18,RRIRRRPPRLPRPRPRPCYMPRP,-0.191
19,RRIRRRPPRLPRPRPRPCYSPRP,-0.00167
20,RRIRRRPPRLPRPRPRPDAWPRP,0.325

row,Sequence,shrunken log2 fold change
1,RRIRRRPPRLPRPRPRPDCCPRP,0.168
2,RRIRRRPPRLPRPRPRPDDEPRP,0.0458
3,RRIRRRPPRLPRPRPRPDDMPRP,-0.039
4,RRIRRRPPRLPRPRPRPDECPRP,0.746
5,RRIRRRPPRLPRPRPRPDFAPRP,0.39
6,RRIRRRPPRLPRPRPRPDFIPRP,0.0171
7,RRIRRRPPRLPRPRPRPDFMPRP,0.335
8,RRIRRRPPRLPRPRPRPDFWPRP,0.647
9,RRIRRRPPRLPRPRPRPDGTPRP,0.0222
10,RRIRRRPPRLPRPRPRPDHRPRP,-0.00663
11,RRIRRRPPRLPRPRPRPDLAPRP,0.197
12,RRIRRRPPRLPRPRPRPDMVPRP,0.206
13,RRIRRRPPRLPRPRPRPDNKPRP,-0.233
14,RRIRRRPPRLPRPRPRPDPLPRP,0.119
15,RRIRRRPPRLPRPRPRPDPQPRP,1.23
16,RRIRRRPPRLPRPRPRPDPRPRP,0.12
17,RRIRRRPPRLPRPRPRPDPSPRP,0.213
18,RRIRRRPPRLPRPRPRPDQFPRP,-0.0176
19,RRIRRRPPRLPRPRPRPDQHPRP,0.552
20,RRIRRRPPRLPRPRPRPDQKPRP,-0.0181

row,Sequence,shrunken log2 fold change
1,RRIRRRPPRLPRPRPRPDQMPRP,-0.0181
2,RRIRRRPPRLPRPRPRPDQVPRP,0.0594
3,RRIRRRPPRLPRPRPRPDQYPRP,-0.126
4,RRIRRRPPRLPRPRPRPDRDPRP,0.15
5,RRIRRRPPRLPRPRPRPDRKPRP,-0.145
6,RRIRRRPPRLPRPRPRPDRTPRP,0.222
7,RRIRRRPPRLPRPRPRPDTRPRP,-0.0459
8,RRIRRRPPRLPRPRPRPDTYPRP,-0.193
9,RRIRRRPPRLPRPRPRPDYAPRP,0.559
10,RRIRRRPPRLPRPRPRPDYHPRP,-0.0959
11,RRIRRRPPRLPRPRPRPDYVPRP,0.0255
12,RRIRRRPPRLPRPRPRPEALPRP,0.115
13,RRIRRRPPRLPRPRPRPEARPRP,0.172
14,RRIRRRPPRLPRPRPRPECKPRP,-0.0282
15,RRIRRRPPRLPRPRPRPEDHPRP,0.122
16,RRIRRRPPRLPRPRPRPEDLPRP,-0.00437
17,RRIRRRPPRLPRPRPRPEFIPRP,-0.0197
18,RRIRRRPPRLPRPRPRPEIDPRP,-0.00263
19,RRIRRRPPRLPRPRPRPEIMPRP,0.209
20,RRIRRRPPRLPRPRPRPEISPRP,0.17
